Results: patent publication US20150259408A1 (PROTHENA BIOSCIENCES, published 2015)

How the values were obtained:
[1] = molecular target: T1, LAMA4 / purified His-LAMA4 (species not stated); test: SPR (Biacore), full kinetic analysis; species of LAMA4 not stated
T1 chain: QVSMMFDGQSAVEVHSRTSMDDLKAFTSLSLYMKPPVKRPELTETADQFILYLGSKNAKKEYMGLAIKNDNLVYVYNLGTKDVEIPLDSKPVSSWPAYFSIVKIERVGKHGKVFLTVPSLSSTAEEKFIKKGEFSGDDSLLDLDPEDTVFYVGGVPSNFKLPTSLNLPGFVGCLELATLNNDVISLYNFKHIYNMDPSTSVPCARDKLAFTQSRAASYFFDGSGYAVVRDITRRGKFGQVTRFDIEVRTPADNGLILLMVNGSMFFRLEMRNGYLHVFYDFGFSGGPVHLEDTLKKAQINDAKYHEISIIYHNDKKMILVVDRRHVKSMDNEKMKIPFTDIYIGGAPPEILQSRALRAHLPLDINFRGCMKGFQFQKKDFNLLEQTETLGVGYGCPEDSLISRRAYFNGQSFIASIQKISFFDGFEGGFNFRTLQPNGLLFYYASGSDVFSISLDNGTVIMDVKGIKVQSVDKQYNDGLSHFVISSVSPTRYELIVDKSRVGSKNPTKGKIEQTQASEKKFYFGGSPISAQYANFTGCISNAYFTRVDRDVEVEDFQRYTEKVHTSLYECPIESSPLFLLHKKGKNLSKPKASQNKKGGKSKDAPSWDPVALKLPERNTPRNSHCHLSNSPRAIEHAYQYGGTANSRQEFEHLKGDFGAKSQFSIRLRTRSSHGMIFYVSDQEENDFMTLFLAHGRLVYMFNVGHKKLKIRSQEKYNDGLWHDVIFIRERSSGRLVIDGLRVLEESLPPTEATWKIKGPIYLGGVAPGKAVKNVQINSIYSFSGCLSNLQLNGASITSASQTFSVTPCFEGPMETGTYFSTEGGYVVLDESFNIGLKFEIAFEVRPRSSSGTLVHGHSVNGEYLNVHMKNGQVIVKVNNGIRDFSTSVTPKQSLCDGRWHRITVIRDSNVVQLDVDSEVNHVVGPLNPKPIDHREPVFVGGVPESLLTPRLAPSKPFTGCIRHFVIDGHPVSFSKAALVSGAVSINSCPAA

[2] = molecular target: T2, human LAMA4 G domain LG1-5 displayed on 293 cells (pDisplay) (human, UniProt Q16363 830-1821, limits assumed); test: flow cytometry on 293 cells displaying LAMA4 fragments
T2 construct: The pDisplay vector parts (leader, tags, PDGFR transmembrane anchor) are not described; also called LAMA4-displaying 293 cells; Human LAMA4 G-domains 1-5
T2 sequence: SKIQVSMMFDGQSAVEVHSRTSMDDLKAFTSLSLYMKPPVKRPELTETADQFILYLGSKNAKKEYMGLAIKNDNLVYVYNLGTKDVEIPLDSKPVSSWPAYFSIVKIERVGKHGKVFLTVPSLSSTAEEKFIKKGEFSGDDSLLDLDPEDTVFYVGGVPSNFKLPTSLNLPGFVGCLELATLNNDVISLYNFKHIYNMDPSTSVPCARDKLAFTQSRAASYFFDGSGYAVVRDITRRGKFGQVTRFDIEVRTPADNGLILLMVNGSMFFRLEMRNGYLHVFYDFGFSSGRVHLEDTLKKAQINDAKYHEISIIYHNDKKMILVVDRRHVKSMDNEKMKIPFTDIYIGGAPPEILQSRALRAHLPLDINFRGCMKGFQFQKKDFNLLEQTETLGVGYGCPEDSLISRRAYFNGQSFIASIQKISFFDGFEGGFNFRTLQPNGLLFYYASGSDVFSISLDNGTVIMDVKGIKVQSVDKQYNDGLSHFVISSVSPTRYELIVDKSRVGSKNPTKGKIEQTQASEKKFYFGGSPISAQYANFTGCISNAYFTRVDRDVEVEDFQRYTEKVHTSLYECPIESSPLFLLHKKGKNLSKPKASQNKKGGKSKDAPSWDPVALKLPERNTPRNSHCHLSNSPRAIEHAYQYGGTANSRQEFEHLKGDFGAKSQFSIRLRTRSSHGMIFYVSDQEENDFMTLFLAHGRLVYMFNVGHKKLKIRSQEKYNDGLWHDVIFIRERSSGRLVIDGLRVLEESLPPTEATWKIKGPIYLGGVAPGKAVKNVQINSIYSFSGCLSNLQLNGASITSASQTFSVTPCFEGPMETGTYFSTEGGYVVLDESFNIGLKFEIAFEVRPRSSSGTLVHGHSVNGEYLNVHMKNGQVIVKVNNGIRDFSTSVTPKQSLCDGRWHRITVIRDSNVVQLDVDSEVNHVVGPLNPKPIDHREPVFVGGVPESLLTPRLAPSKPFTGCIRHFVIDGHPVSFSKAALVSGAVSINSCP
Experimental: (§1) The specific binding of the chimeric 15F7, […] H1L2, H2L1, and H2L2 antibodies to the LG4-5 modules of the G domain of LAMA4 was tested by assessing the antibodies' ability to stain LAMA4-fragment-displaying 293 cells by flow cytometry, as shown in FIG. 9. Each of the antibodies was able to specifically bind 293 cells displaying LG1-5 and LG4-5, but not LG1-3.
(§2) Human LAMA4 G-domains 1-5 and variants were cloned into pDisplay expression construct (Life Technologies) and transiently transfected into 293 cells using standard procedures. Anti-LAMA4 antibodies were incubated with cells for 30 min at 4° C. and followed by anti-mouse-650 for 30 minutes at 4° C. Cells were analyzed for anti-laminin binding by flow cytometry using standard procedures.

[3] = molecular target: T3, human LAMA4 LG1-3 fragment displayed on 293 cells (pDisplay) (human, UniProt Q16363 830-1430, limits assumed); test: as above
T3 sequence: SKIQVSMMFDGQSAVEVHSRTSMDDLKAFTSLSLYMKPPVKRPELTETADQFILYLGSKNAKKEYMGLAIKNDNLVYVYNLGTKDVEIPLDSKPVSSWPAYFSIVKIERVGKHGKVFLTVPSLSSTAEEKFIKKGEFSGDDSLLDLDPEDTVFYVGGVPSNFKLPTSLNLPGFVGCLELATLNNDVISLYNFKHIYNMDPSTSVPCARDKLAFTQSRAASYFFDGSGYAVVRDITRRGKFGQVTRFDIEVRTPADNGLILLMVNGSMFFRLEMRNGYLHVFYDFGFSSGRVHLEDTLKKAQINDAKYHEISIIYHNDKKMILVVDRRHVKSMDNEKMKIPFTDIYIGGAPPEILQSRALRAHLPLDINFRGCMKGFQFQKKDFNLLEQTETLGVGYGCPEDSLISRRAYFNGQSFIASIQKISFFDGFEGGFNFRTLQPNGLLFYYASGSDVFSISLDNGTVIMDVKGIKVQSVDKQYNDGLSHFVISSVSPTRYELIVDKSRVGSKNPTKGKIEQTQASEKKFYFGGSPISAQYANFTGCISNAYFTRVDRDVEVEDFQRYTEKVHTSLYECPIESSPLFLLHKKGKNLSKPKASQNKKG
Experimental: as §1, §2

[4] = molecular target: T4, human LAMA4 LG4-5 fragment displayed on 293 cells (pDisplay) (human, UniProt Q16363 1453-1821, limits assumed); test: flow cytometry, serial dilution on 293 cells displaying LG4-5
T4 sequence: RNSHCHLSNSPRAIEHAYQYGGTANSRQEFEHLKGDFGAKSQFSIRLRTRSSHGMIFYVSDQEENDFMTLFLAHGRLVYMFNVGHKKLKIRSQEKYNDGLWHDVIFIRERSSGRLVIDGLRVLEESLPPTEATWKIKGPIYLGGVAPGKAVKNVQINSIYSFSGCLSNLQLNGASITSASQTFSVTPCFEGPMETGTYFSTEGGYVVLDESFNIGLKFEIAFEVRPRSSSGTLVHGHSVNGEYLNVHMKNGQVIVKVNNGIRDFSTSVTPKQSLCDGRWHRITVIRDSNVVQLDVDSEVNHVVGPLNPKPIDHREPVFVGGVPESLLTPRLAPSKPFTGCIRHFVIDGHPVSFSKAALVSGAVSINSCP
Experimental: Chimeric 15F7, H1L1, H1L2, H2L1, H2L2, and buffer alone were tested for their ability to bind to LAMA4-fragment-displaying cells. To test LAMA4 binding capacity, serially diluted antibodies were pre-incubated with human 293 cells displaying LG4-5, followed by anti-human-650 secondary antibody incubation as described in the Materials and Methods. Fluorescent signal was assessed via flow cytometric analyses and plotted as mean fluorescence intensity (MFI) as shown in FIG. 8.
as §2

B1: humanized 15F7 variant H1L1 (Hu15F7VHv1/Hu15F7VLv1) (antibody, V domains shown)
VH: EVQLQQSGAEVKKPGSSVKLSCKASGYTFTSYGLSWVKQRAGQGLEWIGEIFPRSGNTYYNEKFKGKATLTADKSSSTAYMELRSLRSEDTAVYFCARGVRSPGAMDYWGQGTLVTVSS
VL: DIQMTQSSSSLSASVGDRVTITCKASEDIYNRLAWYQQKPGNAPRLLISGATSLETGVPSRFSGSGSGKDYTLTISSLQTEDFATYYCQQYWSIPYTFGGGTKLEIKR
notes: They are human, since it was captured by a goat anti-human Fc sensor; also called VHv1/VLv1
Kd [1]: 0.12 nM
koff [1]: 0.000183 s⁻¹
kon [1]: 1.5e+06 M⁻¹ s⁻¹
binding result [2]: binds
binding result [3]: no binding
binding result [4]: binds

B2: chimeric 15F7 (antibody, V domains shown)
VH: QVQLQQSGTELARPGAAVKLSCKASGYTFTSYGLSWVKQRAGQGLEWIGEIFPRSGNTYYNEKFKGKATLTADKSSSTAYMELRSLTSEDSAVYFCARGVRSPGAMDYWGQGTSVTVSS
VL: DIQMTQSSSSFSVSLGDRVTITCKASEDIYNRLAWYQQKPGNAPRLLISGATSLETGVPSRFSGSGSGKDYTLSITSLQTEDVATYYCQQYWSIPYTFGGGTNLEIKR
Kd [1]: 0.1 nM
koff [1]: 0.000151 s⁻¹
kon [1]: 1.5e+06 M⁻¹ s⁻¹
binding result [3]: no binding

B3: humanized 15F7 variant H2L1 (Hu15F7VHv2/Hu15F7VLv1) (antibody, V domains shown)
VH: EVQLQQSGAEVKKPGSSVKLSCKASGYTFTSYGLSWVKQRPGQGLEWIGEIFPRSGNTYYNEKFKGKATITADKSSSTAYMELRSLRSEDTAVYFCARGVRSPGAMDYWGQGTLVTVSS
VL: DIQMTQSSSSLSASVGDRVTITCKASEDIYNRLAWYQQKPGNAPRLLISGATSLETGVPSRFSGSGSGKDYTLTISSLQTEDFATYYCQQYWSIPYTFGGGTKLEIKR
notes: also called VHv2/VLv1
Kd [1]: 0.13 nM
koff [1]: 0.000205 s⁻¹
kon [1]: 1.56e+06 M⁻¹ s⁻¹
binding result [2]: binds
binding result [3]: no binding
binding result [4]: binds

B4: humanized 15F7 variant H2L2 (Hu15F7VHv2/Hu15F7VLv2) (antibody, V domains shown)
VH: EVQLQQSGAEVKKPGSSVKLSCKASGYTFTSYGLSWVKQRPGQGLEWIGEIFPRSGNTYYNEKFKGKATITADKSSSTAYMELRSLRSEDTAVYFCARGVRSPGAMDYWGQGTLVTVSS
VL: DIQMTQSPSSLSASVGDRVTITCKASEDIYNRLAWYQQKPGNAPKLLISGATSLETGVPSRFSGSGSGKDFTLTISSLQPEDFATYYCQQYWSIPYTFGGGTKVEIKR
notes: also called VHv2/VLv2
binding result [2]: binds
binding result [3]: no binding
binding result [4]: binds

B5: humanized 15F7 variant H1L2 (Hu15F7VHv1/Hu15F7VLv2) (antibody, V domains shown)
VH: EVQLQQSGAEVKKPGSSVKLSCKASGYTFTSYGLSWVKQRAGQGLEWIGEIFPRSGNTYYNEKFKGKATLTADKSSSTAYMELRSLRSEDTAVYFCARGVRSPGAMDYWGQGTLVTVSS
VL: DIQMTQSPSSLSASVGDRVTITCKASEDIYNRLAWYQQKPGNAPKLLISGATSLETGVPSRFSGSGSGKDFTLTISSLQPEDFATYYCQQYWSIPYTFGGGTKVEIKR
notes: also called VHv1/VLv2
binding result [2]: binds
binding result [3]: no binding
binding result [4]: binds
